According to patent US20230140293A1:
Like-named read-outs stand apart in the source and are kept apart here.

What was measured:
[1] = target: CH505 transmitted/founder (TF) gp120 (HIV-1); test: ELISA, gp120 on plate
[2] = target: CH505 w030.21 gp120 (HIV-1); test: ELISA, gp120 on plate
[3] = target: CH505 w053.16 gp120 (HIV-1); test: ELISA, gp120 on plate
[4] = target: CH505 w078.15 gp120 (HIV-1); test: ELISA, gp120 on plate
[5] = target: CH505 w078.33 gp120 (HIV-1); test: ELISA, gp120 on plate
[6] = target: CH505 w100.B6 gp120 (HIV-1); test: ELISA, gp120 on plate
[7] = target: CH0505TF.G458Y Env, pseudotyped virus produced in 293S GnTI- cells (HIV-1); test: cell-based or functional assay
[8] = target: CH0505TF.gly3.461 Env, pseudotyped virus produced in 293S GnTI- cells (HIV-1); test: cell-based or functional assay
[9] = target: CH0505TF.gly4 Env, Env-pseudotyped virus produced in 293T cells (HIV-1); test: cell-based or functional assay
[10] = target: HIV-1 426c.DM (N460D/N463D) Env on Env-pseudotyped virus produced in 293s/GnTI-/- cells (Man5-enrichment) (HIV-1); test: cell-based or functional assay
[11] = target: HIV-1 CH0505TF (CH505 transmitted/founder) Env on Env-pseudotyped virus produced in 293T cells (HIV-1); test: cell-based or functional assay
[12] = target: HIV-1 CH0505TF Env on Env-pseudotyped virus produced in 293S/GnTI-/- cells (Man5-enrichment) (HIV-1); test: cell-based or functional assay
[13] = target: HIV-1 CH0505TF.gly3.197 Env on Env-pseudotyped virus produced in 293S/GnTI-/- cells (Man5-enrichment) (HIV-1); test: cell-based or functional assay
[14] = target: HIV-1 CH0505TF.gly3.197 Env on Env-pseudotyped virus produced in 293T cells (HIV-1); test: cell-based or functional assay
[15] = target: HIV-1 CH0505TF.gly4 Env on Env-pseudotyped virus produced in 293S/GnTI-/- cells (Man5-enrichment) (HIV-1); test: cell-based or functional assay
[16] = target: HIV-1 Env 426c.DM (N460D.N463D), Env-pseudotyped virus produced in 293T cells (HIV-1 clade C strain 426c); test: cell-based or functional assay
[17] = target: HIV-1 Env 426c.TM (N276D.N460D.N463D), Env-pseudotyped virus produced in 293S GnTI- cells (Man5-enriched) (HIV-1 clade C strain 426c); test: cell-based or functional assay
[18] = target: HIV-1 Env 426c.TM4 (S278R.G471S.N460D.N463D), Env-pseudotyped virus produced in 293S GnTI- cells (Man5-enriched) (HIV-1 clade C strain 426c); test: cell-based or functional assay
[19] = target: HIV-1 clade C strain 426c Env on Env-pseudotyped virus produced in 293T cells (HIV-1); test: cell-based or functional assay
[20] = target: HIV-1 CH0505TF.G458Y Env on Env-pseudotyped virus produced in 293S GnTI-/- cells (Man5-enrichment) (HIV-1); test: cell-based or functional assay
[21] = target: CH0505TF G458C Env, pseudotyped virus produced in 293S GnTI- cells (HIV-1); test: cell-based or functional assay
[22] = target: CH0505TF G458D Env, pseudotyped virus produced in 293S GnTI- cells (HIV-1); test: cell-based or functional assay
[23] = target: CH0505TF G458E Env, pseudotyped virus produced in 293S GnTI- cells (HIV-1); test: cell-based or functional assay
[24] = target: CH0505TF G458F Env, pseudotyped virus produced in 293S GnTI- cells (HIV-1); test: cell-based or functional assay
[25] = target: CH0505TF G458K Env, pseudotyped virus produced in 293S GnTI- cells (HIV-1); test: cell-based or functional assay
[26] = target: CH0505TF G458L Env, pseudotyped virus produced in 293S GnTI- cells (HIV-1); test: cell-based or functional assay
[27] = target: CH0505TF G458R Env, pseudotyped virus produced in 293S GnTI- cells (HIV-1); test: cell-based or functional assay
[28] = target: CH0505TF G458S Env, pseudotyped virus produced in 293S GnTI- cells (HIV-1); test: cell-based or functional assay
[29] = target: CH0505TF G458W Env, pseudotyped virus produced in 293S GnTI- cells (HIV-1); test: cell-based or functional assay
[30] = target: CH0505TF G458Y.N280D Env, pseudotyped virus produced in 293S GnTI- cells (HIV-1); test: cell-based or functional assay
[31] = target: CH0505TF.gly4.G458Y Env, pseudotyped virus produced in 293S GnTI- cells (HIV-1); test: cell-based or functional assay
[32] = target: CH0505TF.gly4.G458Y Env, pseudotyped virus produced in 293T cells (HIV-1); test: cell-based or functional assay
[33] = target: HIV-1 CH0505TF.G458Y Env on Env-pseudotyped virus produced in 293S GnTI-/- cells (Man5-enrichment) (HIV-1); test: cell-based or functional assay; remark: listed apart in the source
[34] = target: HIV-1 CH0505TF.G458Y Env on Env-pseudotyped virus produced in 293T cells (HIV-1); test: cell-based or functional assay
[35] = target: CH505 M5 gp120 (HIV-1); test: method not named in the legend (FIG. 59F); GMP M5 gp120

Row | Substance | IC50 (µg/ml) in TZM-bl [7] [µg/mL] | IC50 (µg/ml) in TZM-bl [8] [µg/mL] | IC50 (µg/ml) in TZM-bl [9] [µg/mL] | ID50/IC50 in TZM-bl [10] [µg/mL] | IC50 (ug/ml) in TZM-bl cells [11] [µg/mL] | IC50 (ug/ml) in TZM-bl cells [12] [µg/mL] | IC50 (ug/ml) in TZM-bl cells [13] [µg/mL] | IC50 (ug/ml) in TZM-bl cells [14] [µg/mL] | IC50 (ug/ml) in TZM-bl cells [15] [µg/mL] | IC50 (µg/ml) in TZM-bl [16] [µg/mL] | IC50 (µg/ml) in TZM-bl [17] [µg/mL] | IC50 (µg/ml) in TZM-bl [18] [µg/mL] | ID50/IC50 in TZM-bl [19] [µg/mL] | also measured
1 | CH103 (antibody) | 0.44 | 0.009 | 0.002 | 0.63 | 2.6 | 0.67 | 0.19 | 1.6 | 0.005 | 6.1 | 0.09 | 0.48 | > 40 | log AUC [1]: 12.6 log AUC; log AUC [2]: 12.2 log AUC; log AUC [3]: 11.6 log AUC; log AUC [4]: 10.7 log AUC; log AUC [5]: 11.1 log AUC; log AUC [6]: 7.1 log AUC; IC50 (µg/ml) in TZM-bl [20]: 0.44 µg/mL
2 | CH235 (antibody) | < 0.02 | 0.011 | 0.022 | > 25 | 0.35 | 0.03 | 0.006 | 0.16 | 0.004 | > 50 | > 25 | > 25 | > 50 | IC50 (µg/ml) in TZM-bl cells [21]: 0.009 µg/mL; IC50 (µg/ml) in TZM-bl cells [22]: 0.011 µg/mL; IC50 (µg/ml) in TZM-bl cells [23]: 0.012 µg/mL; IC50 (µg/ml) in TZM-bl cells [24]: < 0.005 µg/mL; IC50 (µg/ml) in TZM-bl cells [25]: 0.022 µg/mL; IC50 (µg/ml) in TZM-bl cells [26]: 0.015 µg/mL; IC50 (µg/ml) in TZM-bl cells [27]: < 0.005 µg/mL; IC50 (µg/ml) in TZM-bl cells [28]: 0.005 µg/mL; IC50 (µg/ml) in TZM-bl cells [29]: < 0.005 µg/mL; IC50 (µg/ml) in TZM-bl cells [30]: 2.69 µg/mL; IC50 (µg/ml) in TZM-bl cells [7]: < 0.005 µg/mL; IC50 (µg/ml) in TZM-bl cells [31]: < 0.005 µg/mL; IC50 (µg/ml) in TZM-bl cells [32]: 0.064 µg/mL; IC50 (µg/ml) in TZM-bl [11]: 0.35 µg/mL; IC50 (µg/ml) in TZM-bl [12]: < 0.02 µg/mL; IC50 (µg/ml) in TZM-bl [33]: < 0.02 µg/mL; IC50 (µg/ml) in TZM-bl [34]: 0.2 µg/mL; Kd [35]: 8 nM
